In patent US20230127087:

Target: Glypican-3 (GPC3) (UniProt P51654)
Assay: filter
Details: n = BzdU (benzyl-modified dU); unit not given; Bmax 0.79; SB18T0.05, 37 C; 32P-labelled aptamer, protein titrated from 100 nM

Chain of Glypican-3 (GPC3) (P51654 25-554): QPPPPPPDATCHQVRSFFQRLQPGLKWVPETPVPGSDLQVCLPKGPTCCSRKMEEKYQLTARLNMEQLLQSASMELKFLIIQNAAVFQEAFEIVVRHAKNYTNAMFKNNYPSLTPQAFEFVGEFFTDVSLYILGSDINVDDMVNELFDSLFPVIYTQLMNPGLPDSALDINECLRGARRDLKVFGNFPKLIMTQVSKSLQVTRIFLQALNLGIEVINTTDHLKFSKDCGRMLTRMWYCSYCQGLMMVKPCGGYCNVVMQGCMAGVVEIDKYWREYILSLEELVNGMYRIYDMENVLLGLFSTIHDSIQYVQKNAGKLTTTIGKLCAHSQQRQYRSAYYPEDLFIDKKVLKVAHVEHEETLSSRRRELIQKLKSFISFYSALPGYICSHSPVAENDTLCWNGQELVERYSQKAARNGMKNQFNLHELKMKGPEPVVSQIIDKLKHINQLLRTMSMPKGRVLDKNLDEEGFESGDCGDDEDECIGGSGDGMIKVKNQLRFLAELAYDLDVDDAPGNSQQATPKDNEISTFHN

GGGAAGTGAATGCGTTGAATTATGTCCCTTCAGTCATCAC [2428-12-10 (12-10)]
Kd: 1.5
